{
  "source": "the DeepSol protein solubility set",
  "data": [
    {"assay": "soluble on expression in E. coli; label from the status in PepcDB or PDB records", "values": [
      {"sequence": "MNAGKEFNYYTYQSDSSQGSLQKAPDENTDYFTHKMNSYLPFDMSTLYANQPTEKIQILQEIYDTERTYVKALTIVDEIFIQQLNLWCPKSKKCFRSMFGEISAICKTHQILLESLQCKPIAEVFTKFVPFLKLYTSYASHYPNSLKIFAKLMSRNDFRKALTKIEEDPRVDGKKLQTYLIMPIQRIPRYIMLIQNLMNYSTEKDDMTNLYKALSGMQGLSDQIQSCMTAYENGERLLQIQLNFGLDGHILEPGRVLLKEGMLYKRELNGSANYQETVVFLFNDILLYGIKRISVMPLCKYEPSAILSLRHCIVQLDDIGGSIFIRCGDVGVDFTAYSLGGVTEWYNEICDAIDNAKKLRDTLRKESFKQKSLIFDKGFWQRNRDKLRNMITADMTGNISRVLTRKKPAPKLEESDFLRGQWTTSTIASNQRKRKVATLEDEEEDVFNMLSSPNLSQRKRKATLQENTPSGVGWTASPRSSSFRKRRASTLRNKNADVTDGNNYLSHLVLNDVTMTQPYTGLNAFVGTPKSRTPTDDDYDSDRDYVWTDDEEFVSDDKKIPIRRVASYDEEDRRPRDFSEVRRSVASEPPRRHLAVDDIRKLSYQQRSLEPFNMVTEDDDEDDIIDIKVKGERPRPWWETESAPPAIKNQKSSIIDSIRNSCAIM", "soluble on expression in E. coli": "not soluble"},
      {"sequence": "MNALTALSPLDGRYASKCDALRPFLSEFGLIHARVTVEVRWLQALSNHAGIIEVAPFSTETNAALDSIVANFSEDDANRIKEIERTTNHDVKAVEYFLKEKIAGLDELKNAGEFIHFACTSEDINNLSHALMLKNGREVLVSSMKQILNAIAALATTHAEQPMLSRTHGQTASPTTLGKEMANVAYRLARQIKQFENVELLGKINGAVGNYNAHLSAYPDIDWAAHSQAFVESLGLTFNPYTTQIEPHDYMAELFDALRRYNTILIDFNRDVWGYISLGYFKQKLKDGEVGSSTMPHKVNPIDFENSEGNLGIANAVLGHLGEKLPVSRWQRDLTDSTVLRNMGVGFAQSLIAFDACLKGIGKLELNAARLAEDLNQAQEVLAEPIQTVMRRYNVEKPYEKLKALTRGQAMTRDMMVNFVNGDELSQVPAEERARLAEMTPASYTGNAADQAKQINDLINKI", "soluble on expression in E. coli": "not soluble"},
      {"sequence": "MNATAVAAAATGRQLHKFGGSSLADVKCYLRVANIMANYSHPGDLMVVSAAGSTTNQLISWLKLSQNDRLSAHQVQQSLRRYQHDLINGLLPPEMAEPLISEFIHDLERLAGLLDNKIDDVIYAEVVGHGEIWSARLMSALLNKLDMDAVWLDARRFLRAERAAQPQIDESRSYPLLQQLMAQHPHQRLVVTGFISRNEAGETVLLGRNGSDYSATQVGALAGAERVTIWSDVAGVYSADPRKVKDACLLPLLRLDEASELARLAAPVLHTRTLQPVSGSDIDLQLRCSYQPEQGSTRIERVLASGLGAKIVTSHDDVCLIELQIASHHDFSLAQKEIDLLLKRAQIKPLATGIHPDRNLLQLCYTSEVVNSALRVLEDAALPGKLSLREGLALVALVGAGVSKNPLHSHRFYQQLKDQPVEFVWQAEDGISMVAVLRLGPTEHLIQGLHQSLFRAEKRIGLMLFGKGNIGARWLELFAREQKSLSARSGFEFVLAGVVDSRRSLLSYDGLDASRTLAFYNDEAKEQDEESLFLWMRAHPFDDLVVLDVTASPSLAEQYLDFASYGFHVISANKLAGASSSNNYRQIRDAFAKTGRHWLYNATVGAGLPVNHTVRDLRDSGDSILAISGIFSGTLSWLFLQFDGSVPFTELVDQAWQQGLTEPDPRVDLSGQDVMRKLVILAREAGYDIEPNQVRVESLVPAGAESGSVDQFFENGEALNQQMIQRLEAAKEMGLVLRYVARFDANGKARVGVEAVRTDHPLASLLPCDNVFAIESRWYRDNPLVIRGPGAGRDVTAGAIQSDLNRLSQLL", "soluble on expression in E. coli": "not soluble"},
      {"sequence": "MNDNEIGNPPIKALIVFRENGDTDNLFVPILCDAIRTTGIDVRCSTNEFWNSDTPYDIIHFQWPEEVMEGNCDDPDRICRLKECIAFFRSRGARFVYTRHNVRPHDANEVIGRAYDIIEEQSDVVVHMGRYSLDEFAAKHADSRNVIIPHPIYQYTYKEDISVERARQYLNLPQEAFIVTSFGKFRNREERRMVTGAFRKWDEAKKFLLAPRLYPFSRFNRYGSNFFKRWTSRAGYYLLIPLLNRLRRMHAGASDEPIDNCDLPYYMAASDVIFIQRKDILNSASIPLAFLFHKVVIGPNIGNIGEILQDTGNPVFHPDNQFDIIRALEAARQLSARRKGEDNYAYAIENMNSGKIGKEYAELYRNLANLSL", "soluble on expression in E. coli": "not soluble"},
      {"sequence": "MNECGHCSVKVGEESAILTNGKVWHVNHLLCDLCNCRINDGERCVPQNGVILCSECHIKTTRPICKGCGEFIKTNLCEALNSTWHPTCFQCSVCQKPLEVDFHQLPNRMCVHSDCFWDLQLRMIVCKDLPK", "soluble on expression in E. coli": "not soluble"},
      {"sequence": "MNEDNSPSSNEGKKEKAEGPSRKSFFERLGQLFQGEPKDRQELVDVIRDSEVNDLIDHDTRDMLEGVMEISEMRVRDIMIPRSQMVTVERTDDLDTLIALITDAQHSRYPVISEDKDHVEGILLAKDLLKYLGSGSNPFDIEEVIRPAVVVPESKRVDRLLKEFREERYHMAIVVDEFGGVSGLVTIEDILEEIVGDIEDEFDESEETDIRKLSKHTFAVRALTTIEEFNETFGTNFSDEEVDTVGGMVMTAFGHLPSRGELVEIEGYNFKVTAADNRRVIQLQVTIPDEETLVEATQE", "soluble on expression in E. coli": "not soluble"},
      {"sequence": "MNEIIMLLRTIPTSKLIQPIMQLFIDNAILNIVQNDALLIEKATHARNHLRLWSLQGHRDIPNLEHHHHHH", "soluble on expression in E. coli": "not soluble"},
      {"sequence": "MNEIKNLKQYSKAAERFEGAHLLCPGCAHGMIVREVLNATDDPLILSSATGCLEVSTAVYPYTSWDVPWIHIGFENSSTAVAGAEAMYKALERKGKLYSEKKPKFVAFGGDGSTYDIGFQYISGCFERGHNMTYICLDNEVYANTGGQRSGSTPIGASTTTTPAGRVSYGKKDKKKDILQIMAAHGAPYVAQVAPNKWKDMAKKLKMALETEGPTFINAMSACTTEWKFESNLTVEVSDLAVDSLVFPLYEIINGTELNITYRPKNIVPVRDYLAAQGRFKHLFKKENEHIIEQWQKEVDARWVYLQKREEARV", "soluble on expression in E. coli": "not soluble"},
      {"sequence": "MNEKEKIIEYWRRRARECLDDAKLLLKNERLHSAVNRIYYALFYQVSALLLAKGLSFSKHSGVLAAFNREFVKTGKVNKELGKFYNRMFEHRKTGDYGELVEFEEENVKDWIRKAEGFLDAIEKLIEDLKRA", "soluble on expression in E. coli": "not soluble"},
      {"sequence": "MNELTGADFKSATADDNKKLFIETYGCQMNVADSEVIASVMQMAGYSVAETLEEADAVFMNTCSIRDNAEQKILNRLEFFHSMKKKKKHLIVGVLGCMAERVKDDLIEHHHVDLVVGPDAYLTLPELIASVEAGEKAMNVELSTTETYRDVIPSRICGNHISGFVSIMRGCNNFCTYCIVPYTRGRERSRDVESILNEVADLVSKGYKEITLLGQNVNSYRFEKEGGEVVTFPMLLRLVAEAAPGIRVRFTTSHPKDMSDETLEVIAQVPNVCKHIHLPVQSGSSRILKLMNRKYTREWYLDRVAAIKRIVPDCGLTTDIFSGFHSETEEDHRESLSLMEACGYDAAFMFKYSERPGTYASKHLEDNVPEEIKVRRLNEIIALQNRLSAESNNRCIGKTYEVLVEGVSKRSRDQLFGRTEQNRVVVFDRGTHRIGDFVNVRITEASSATLKGEEVFSLEHHHHHH", "soluble on expression in E. coli": "not soluble"},
      {"sequence": "MNEQPAACRIKVEALGAGFAPAAEQWAERLGLALQVDEAEFALQVGEQGLQLQQLGPDAPGPVRVDFVEGGAAHRRLYGGGSGQMIAKAVGVAQGVRPRVLDATAGLGKDGFVLATLGCEMSLIERQPLIGALLEDGLARAAQDAEVGPIVARMHLLKGNSIELMRNWQGEPPQVIYLDPMFPHREKSALVKKEMRLFRPLVGDDNDAPALLAAALALASHRVVVKRPRKAPCIEGPKPSHGLEGKSSRYDIYPKKALKALEHHHHHH", "soluble on expression in E. coli": "not soluble"},
      {"sequence": "MNETSHEASECPAAVITGGARRIGHSIAVRLHQQGFRVVVHYRHSEGAAQRLVAELNAARAGSAVLCKGDLSLSSSLLDCCEDIIDCSFRAFGRCDVLVNNASAYYPTPLLPGDDTNGAADAKPIDAQVAELFGSNAVAPLFLIRAFARRQGEGGAWRSRNLSVVNLCDAMTDLPLPGFCVYTMAKHALGGLTRAAALELAPRHIRVNAVAPGLSLLPPAMPQETQEEYRRKVPLGQSEASAAQIADAIAFLVSKDAGYITGTTLKVDGGLILARA", "soluble on expression in E. coli": "soluble"},
      {"sequence": "MNFEDVFREFGELWYDIEFVLTTVIKTKNVTPILTLSGEFCVPGIHALYNIFHIMISVLRIFQKVKHDTWHLVTDYVNILETRLKPFERTPCFITNTALETIIQELCEYWRMLENVPCKDIRSIEGARFTENDWKNELIRIGLSDIFPELVEFFDAGYQVLLNIAQNGDTLKTSDLICHLESTQAFCFSSRFKFLEVASDIQQGIYPKFRNSVNVFIGIASKSESLLPHLKARSRYEGILSAMQVDKQLVPPPIQICHKLIIDAETVSNPTPVPQQLEKKTENCSECSDVRMEMYTVKDVLQNVQKQLKNMQQNSEQFETKLVASDNKTKNFEKQLEDERRKNNKHLESSRKTLISKNEQLEALKRRATALSNCQAENQTLKFKIAEHHDLEKQLNISNKDVTQARDQLSGQISELEIQLKSELKNVEHLNKEHKKAIDLANEISKLKTEIERETSISKQLEKEISQLRTETDEMNIVITQSLEMENLQLRDVTKKFETENASLLKTNQQLSIQNEEQKRLIQVLLEKQQTAPSSSDFPVPSTQMTDNEENSRQQLWKYQKIKDSFRDGMKLRKAEAMVKKLTSLDRDLGVHQMAHRELENFKKLTSYYLQAIEMNIPKIKNNGSSDLEQLPEAPKFSNEFMRFYRNATGKQPLTSSSSSSANPRSTHIEGSSISTMPSTSSRGNVQHHSGSAVRGQSITPTGLSQVPMSPRKLFSQPDIVTASVPSTELDDTECAICLDEMTNFKETIKCECRRRFHLKCATKWLNEKRECPTCRKLLLNPADYPPLN", "soluble on expression in E. coli": "not soluble"},
      {"sequence": "MNFEGKIALVTGASRGIGRAIAETLAARGAKVIGTATSENGAQAISDYLGANGKGLMLNVTDPASIESVLEKIRAEFGEVDILVNNAGITRDNLLMRMKDEEWNDIIETNLSSVFRLSKAVMRAMMKKRHGRIITIGSVVGTMGNGGQANYAAAKAGLIGFSKSLAREVASRGITVNVVAPGFIETDMTRALSDDQRAGILAQVPAGRLGGAQEIANAVAFLASDEAAYITGETLHVNGGMYMV", "soluble on expression in E. coli": "soluble"},
      {"sequence": "MNFFTSPFSGIPLDQQVTNPNIIVGKHSYYSGYYHGHSFDDCVRYLHPERDDVDKLVIGSFCSIGSGAVFMMAGNQGHRSDWISTFPFFYQDNDNFADARDGFTRSGDTIIGHDVWIGTEAMIMPGVKIGHGAIIASRSVVTKDVAPYEVVGSNPAKHIKFRFSDVEIAMLLEMAWWNWPESWLKESMQSLCSSDIEGLYLNWQSKART", "soluble on expression in E. coli": "not soluble"},
      {"sequence": "MNFISLSIFSEHLKSLFPFFTPNPFLNANVAVNDDVSSPNSSVTANYGHGTRACYTHRMGRFLSPKKAFFRFSLIN", "soluble on expression in E. coli": "not soluble"},
      {"sequence": "MNFKLNNTLSNEINTLIIGIPEHLNQLERISFNHIDITESLERLKHQHIIGSKVGKIYTTAFDVQDQTYRLITVGLGNLKTRSYQDMLKIWGHLFQYIKSEHIEDTYLLMDSFISKYDQLSDVLMACGIQSERATYEFDHYKSSKKAPFKTNLNLISESLIELDFIHEGISIGQSINLARDFSNMPPNVLTPQTFAEDIVNHFKNTKVKVDVKDYDTLVSEGFGLLQAVGKGSKHKPRLVTITYNGKDKDEAPIALVGKGITYDSGGYSIKTKNGMATMKFDMCGAANVVGIIEAASRLQLPVNIVGVLACAENMINEASMKPDDVFTALSGETVEVMNTDAEGRLVLADAVFYANQYQPSVIMDFATLTGAAIVALGDDKAAAFESNSKVILNDILQISSEVDEMVFELPITATERASIKHSDIADLVNHTNGQGKALFAASFVTHFSGQTPHIHFDIAGPATTNKASYNGPKGPTGFMIPTIVQWLKQQ", "soluble on expression in E. coli": "not soluble"}
    ]}
  ]
}
